Tested on: not listed separately
Test: Pharmacokinetic studies, single s.c. dose in normal male Sprague-Dawley rats
Assay type: in vivo, rat
Conditions: single bolus s.c. dose of 1 mg/kg in rats, FIG. 15
Procedure: Pharmacokinetic properties of PEG-modified growth hormone compounds were compared to each other and to nonPEGylated growth hormone in male Sprague-Dawley rats (261-425 g) obtained from Charles River Laboratories. Catheters were surgically installed into the carotid artery for blood collection. Following successful catheter installation, animals were assigned to treatment groups (three to six per group) prior to dosing. Animals were dosed subcutaneously with 1 mg/kg of compound in a dose volume of 0.41-0.55 ml/kg. Blood samples were collected at various time points via the indwelling catheter and into EDTA-coated microfuge tubes. Plasma was collected after centrifugation, and stored at −80° C. until analysis. Compound concentrations were measured using antibody sandwich growth hormone ELISA kits from either BioSource International (Camarillo, Calif.) or Diagnostic Systems Laboratories (Webster, Tex.). Concentrations were calculated using standards corresponding to the analog that was dosed. Pharmacokinetic parameters were estimated using the modeling program WinNonlin (Pharsight, version 4.1). Noncompartmental analysis with linear-up/log-down trapezoidal integration was used, and concentration data was uniformly weighted.
Rats (n=3-4 per group) were given a single bolus dose of 1 mg/kg hGH wild-type protein (WHO hGH), His-tagged hGH polypeptide (his-hGH), or His-tagged hGH polypeptide comprising non-natural amino acid p-acetyl-phenylalanine at position 92 covalently linked to 30 kDa PEG (30 KPEG-pAF92(his)hGH). Plasma samples were taken over the indicated time intervals and assayed for injected compound as described.
Rats (n=3-6 per group) were given a single bolus dose of 1 mg/kg protein. hGH polypeptides comprising non-natural amino acid p-acetyl-phenylalanine covalently linked to 30 kDa PEG at each of six different positions were compared to WHO hGH and (his)-hGH. Plasma samples were taken over the indicated time intervals and assayed for injected compound as described. Concentration vs time curves were evaluated by noncompartmental analysis (Pharsight, version 4.1). Values shown are averages (+/− standard deviation). Cmax: maximum concentration; terminal t1/2: terminal half-life; AUC0->inf: area under the concentration-time curve extrapolated to infinity; MRT: mean residence time; Cl/f: apparent total, plasma clearance; Vz/f: apparent volume of distribution during terminal phase.

Question: Which “circulation (plasma concentrations) compared to control hGH” value does the source give for “F92pAF-30KD PEG: His-tagged hGH polypeptide comprising p-acetyl-phenylalanine at position 92 covalently linked to 30 kDa PEG” here?
Answer: Its value is “dramatically extended circulation compared to control hGH”.

Same assay, conditions: single-dose 1 mg/kg bolus s.c., normal male Sprague-Dawley rats

Question: Which results are given for “F92pAF-30KD PEG: His-tagged hGH polypeptide comprising p-acetyl-phenylalanine at position 92 covalently linked to 30 kDa PEG”?
Answer: AUC0−>inf: 10,539 ng × hr/ml; Cl/f: 2.25 mL/min/kg; Cmax: 663 ng/mL; MRT: 15.05 h; Terminal t1/2: 4.51 h

Question: What does the source list for “G131pAF-30KPEG: hGH polypeptide comprising p-acetyl-phenylalanine at position 131 covalently linked to 30 kDa PEG”?
Answer: AUC0−>inf: 6,978 ng × hr/ml; Cl/f: 2.68 mL/min/kg; Cmax: 497 ng/mL; MRT: 14.28 h; Terminal t1/2: 4.41 h

Question: With “K145pAF-30KPEG: hGH polypeptide comprising p-acetyl-phenylalanine at position 145 covalently linked to 30 kDa PEG” as the substance, how does the “AUC0−>inf” value read?
Answer: Its value is 13,162 ng × hr/ml.

Question: And the Cl/f?
Answer: The Cl/f was 1.47 mL/min/kg.

Question: What about the Cmax of the same substance?
Answer: Its Cmax is 634 ng/mL.

Question: What about the MRT of the same substance?
Answer: The MRT was 17.82 h.

Question: And the “Terminal t1/2” value?
Answer: The value was 5.87 h.

Question: What does the source list for “R134pAF-30KD PEG: hGH polypeptide comprising p-acetyl-phenylalanine at position 134 covalently linked to 30 kDa PEG”?
Answer: AUC0−>inf: 7,304 ng × hr/ml; Cl/f: 2.52 mL/min/kg; Cmax: 566 ng/mL; MRT: 12.15 h; Terminal t1/2: 4.36 h

Question: Which results are given for “Y143pAF-30KPEG: hGH polypeptide comprising p-acetyl-phenylalanine at position 143 covalently linked to 30 kDa PEG”?
Answer: AUC0−>inf: 17,494 ng × hr/ml; Cl/f: 0.983 mL/min/kg; Cmax: 803 ng/mL; MRT: 18.83 h; Terminal t1/2: 6.02 h

Target: T1, rat GHR ECD (L43R) (Rattus norvegicus, UniProt P16310, L61R)
T1 construct: (GHR ECD, amino acids S29-T238) was cloned into pET20b vector; made in house
T1 sequence (P16310 47-256 L61R): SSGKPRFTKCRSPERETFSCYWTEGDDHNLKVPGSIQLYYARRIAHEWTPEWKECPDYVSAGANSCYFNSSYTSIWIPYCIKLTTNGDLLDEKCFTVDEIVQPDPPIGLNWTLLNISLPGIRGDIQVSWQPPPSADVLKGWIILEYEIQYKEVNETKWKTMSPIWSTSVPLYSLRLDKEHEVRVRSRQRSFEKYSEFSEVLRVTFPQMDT
Test: Biacore analysis of binding of GH to GHR
Conditions: rat GHR ECD (L43R) immobilized on a CM5 chip, bivalent analyte model
Procedure: Cloning and purification of rat GH receptor The extracellular domain of rat GH receptor (GHR ECD, amino acids S29-T238) was cloned into pET20b vector (Novagen) between Nde I and Hind III sites in frame with C-terminal 6H is tag. A mutation of L43 to R was introduced to further approximate the human GH receptor binding site (Souza et al., Proc Natl Acad Sci USA. (1995) 92(4): 959-63). Recombinant protein was produced in BL21 (DE3) E. coli cells (Novagen) by induction with 0.4 mM IPTG at 30° C. for 4-5 hours. After lysing the cells, the pellet was washed four times by resuspending in a dounce with 30 mL of 50 mM Tris, pH 7.6, 100 mM NaCl, 1 mM EDTA, 1% Triton X-100, and twice with the same buffer without Triton X-100. […] Refolding was accomplished by means of passing an aliquot of the inclusion body solution through a S100 (Sigma) gel filtration column, equilibrated with 50 mM Tris, pH 7.8, 1 M L-arginine, 3.7 mM cystamine, 6.5 mM cysteamine. Fractions containing soluble protein were combined and dialyzed against 50 mM Tris, pH 7.6, 200 mM NaCl, 10% glycerol. The sample was briefly centrifuged to remove any precipitate and incubated with an aliquot of Talon resin (Clontech), according to manufacturer's instructions. After washing the resin with 20 volumes of dialysis buffer supplemented with 5 mM imidazole, protein was eluted with 120 mM imidazole in dialysis buffer. Finally, the sample was dialyzed overnight against 50 mM Tris, pH 7.6, 30 mM NaCl, 1 mM EDTA, 10% glycerol, centrifuged briefly to remove any precipitate, adjusted to 20% glycerol final concentration, aliquoted and stored at −80 C. Concentration of the protein was measured by OD(280) using calculated extinction coefficient of ε=65,700 M^−1*cm^−1.
Approximately 600-800 RUs of soluble GHR ECD was immobilized on a Biacore™ CM5 chip, using a standard amine-coupling procedure, as recommended by the manufacturer. […] See, e.g., Cunningham et al. J Mol. Biol. (1993) 234(3): 554-63 and Wells J A. Proc Natl Acad Sci USA (1996) 93(1): 1-6).
Various concentrations of wild type or mutant GH (0.1-300 nM) in HBS-EP buffer (Biacore™, Pharmacia) were injected over the GHR surface at a flow rate of 40 μl/min for 4-5 minutes, and dissociation was monitored for 15 minutes post-injection. The surface was regenerated by a 15 second pulse of 4.5M MgCl2. […] Reference cell with no receptor immobilized was used to subtract any buffer bulk effects and non-specific binding.
Kinetic binding data obtained from GH titration experiments was processed with BiaEvaluation 4.1 software (BIACORE™). […] Equilibrium dissociation constants (Kd) were calculated as ratios of individual rate constants (koff/kon).

Question: For “A155pAF: hGH with p-acetyl-phenylalanine (pAF) substituted for A155”, which kon is on record?
Answer: The kon was 580000 M⁻¹ s⁻¹.

Question: Which kon does the source give for “E88pAF: hGH with p-acetyl-phenylalanine (pAF) substituted for E88” here?
Answer: The kon was 680000 M⁻¹ s⁻¹.

Question: For “F92pAF-5KD PEG: hGH comprising p-acetyl-phenylalanine at position 92 covalently linked to a 5 kDa PEG molecule”, which kon is on record?
Answer: Its kon is 620000 M⁻¹ s⁻¹.

Question: Which kon does the source give for “F92pAF-20KD PEG: hGH comprising p-acetyl-phenylalanine at position 92 covalently linked to a 20 kDa PEG molecule” here?
Answer: Its kon is 170000 M⁻¹ s⁻¹.

Question: With “F92pAF-30KD PEG: His-tagged hGH polypeptide comprising p-acetyl-phenylalanine at position 92 covalently linked to 30 kDa PEG” as the substance, how does the kon read?
Answer: The kon was 130000 M⁻¹ s⁻¹.

Question: With “F92pAF: hGH with p-acetyl-phenylalanine (pAF) substituted for F92” as the substance, how does the kon read?
Answer: The kon was 860000 M⁻¹ s⁻¹.

Question: For “F139pAF: hGH with p-acetyl-phenylalanine (pAF) substituted for F139”, which kon is on record?
Answer: The kon was 680000 M⁻¹ s⁻¹.

Question: With “G131pAF: hGH with p-acetyl-phenylalanine (pAF) substituted for G131” as the substance, how does the kon read?
Answer: Its kon is 600000 M⁻¹ s⁻¹.

Question: Which kon does the source give for “G136pAF: hGH with p-acetyl-phenylalanine (pAF) substituted for G136” here?
Answer: Its kon is 620000 M⁻¹ s⁻¹.

Question: Which kon does the source give for “K140pAF: hGH with p-acetyl-phenylalanine (pAF) substituted for K140” here?
Answer: The kon was 720000 M⁻¹ s⁻¹.

Question: With “K145pAF: hGH with p-acetyl-phenylalanine (pAF) substituted for K145” as the substance, how does the kon read?
Answer: Its kon is 640000 M⁻¹ s⁻¹.

Question: With “N12pAF: hGH with p-acetyl-phenylalanine (pAF) substituted for N12” as the substance, how does the kon read?
Answer: The kon was 1.25e+06 M⁻¹ s⁻¹.

Question: Which kon does the source give for “N99pAF: hGH with p-acetyl-phenylalanine (pAF) substituted for N99” here?
Answer: Its kon is 220000 M⁻¹ s⁻¹.

Question: With “P133pAF: hGH with p-acetyl-phenylalanine (pAF) substituted for P133” as the substance, how does the kon read?
Answer: The kon was 640000 M⁻¹ s⁻¹.

Question: For “Q91pAF: hGH with p-acetyl-phenylalanine (pAF) substituted for Q91”, which kon is on record?
Answer: Its kon is 660000 M⁻¹ s⁻¹.

Question: With “R16pAF: hGH with p-acetyl-phenylalanine (pAF) substituted for R16” as the substance, how does the kon read?
Answer: Its kon is 680000 M⁻¹ s⁻¹.

Question: Which kon does the source give for “R94pAF: hGH with p-acetyl-phenylalanine (pAF) substituted for R94” here?
Answer: The kon was 560000 M⁻¹ s⁻¹.

Question: With “R134pAF-5KD PEG: hGH comprising p-acetyl-phenylalanine at position 134 linked to 5 kDa PEG” as the substance, how does the kon read?
Answer: The kon was 680000 M⁻¹ s⁻¹.

Question: Which kon does the source give for “R134pAF-30KD PEG: hGH polypeptide comprising p-acetyl-phenylalanine at position 134 covalently linked to 30 kDa PEG” here?
Answer: Its kon is 70000 M⁻¹ s⁻¹.

Question: Which kon does the source give for “R134pAF: hGH with p-acetyl-phenylalanine (pAF) substituted for R134” here?
Answer: Its kon is 840000 M⁻¹ s⁻¹.

Question: With “S95pAF: hGH with p-acetyl-phenylalanine (pAF) substituted for S95” as the substance, how does the kon read?
Answer: Its kon is 70000 M⁻¹ s⁻¹.

Question: Which kon does the source give for “T135pAF: hGH with p-acetyl-phenylalanine (pAF) substituted for T135” here?
Answer: The kon was 720000 M⁻¹ s⁻¹.

Question: With “Y35pAF: hGH with p-acetyl-phenylalanine (pAF) substituted for Y35” as the substance, how does the kon read?
Answer: The kon was 780000 M⁻¹ s⁻¹.

Question: Which kon does the source give for “Y103pAF: hGH with p-acetyl-phenylalanine (pAF) substituted for Y103” here?
Answer: Its kon is ~6000 M⁻¹ s⁻¹.

Question: For “Y111pAF: hGH with p-acetyl-phenylalanine (pAF) substituted for Y111”, which kon is on record?
Answer: Its kon is 840000 M⁻¹ s⁻¹.

Question: Which kon does the source give for “Y143pAF: hGH with p-acetyl-phenylalanine (pAF) substituted for Y143” here?
Answer: The kon was 780000 M⁻¹ s⁻¹.

— patent publication US8143216B2, “Modified human growth hormone” (Ambrx, Inc., priority 2004, dated 2012)
